This assay concerns the target IRBIT (UniProt Q80SW1). The assay is described as follows: reciprocal co-IP from co-transfected cells. As to conditions: reference: wild-type IP3R1; sites S1589,S1755.
Sequence of UniProt Q80SW1 (Q80SW1 whole entry, looked up): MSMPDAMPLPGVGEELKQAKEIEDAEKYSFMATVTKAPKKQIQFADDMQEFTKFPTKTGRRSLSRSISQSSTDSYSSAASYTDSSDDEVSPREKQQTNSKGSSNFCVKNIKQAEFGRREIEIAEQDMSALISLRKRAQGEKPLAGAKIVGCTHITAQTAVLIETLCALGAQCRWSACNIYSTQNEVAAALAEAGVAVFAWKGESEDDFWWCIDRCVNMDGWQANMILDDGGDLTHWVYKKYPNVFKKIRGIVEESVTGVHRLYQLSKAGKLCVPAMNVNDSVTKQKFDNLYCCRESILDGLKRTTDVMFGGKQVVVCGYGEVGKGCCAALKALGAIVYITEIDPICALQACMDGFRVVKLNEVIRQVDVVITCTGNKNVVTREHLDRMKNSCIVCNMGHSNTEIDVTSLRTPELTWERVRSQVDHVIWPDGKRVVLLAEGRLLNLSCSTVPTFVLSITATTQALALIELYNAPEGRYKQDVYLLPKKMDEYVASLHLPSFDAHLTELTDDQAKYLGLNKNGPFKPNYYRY

On to “IP3R1 (from UniProt P29994-3) S1589A/S1755A (AA)”, for which the “binding against the reference” value is on record as “stronger”.

Source of the values: article PMC3696401.
